Measured values: the RNAGym collection of RNA variant scans (doi:10.1073/pnas.2313332121)
Fewer inactive variants are shown than the library holds.

B1: TPR 5TU (parent)
chain: GGAUCUUCUCGAUCUAACAAAAAAGACAAAUCUGCCACAAAGCUUGAGAGCAUCUUCGGAUGCAGAGGCGGCAGCCUUCGGUGGCGCGAUAGCGCCAACGUUCUCAACUAUGACACGCAAAACGCGUGCUCCGUUGAAUGGAGUUUAUCAUG

Variants of: B1
Assay: polymerase ribozyme fitness, log enrichment relative to wild type (log ratio); higher = more active; in vitro selection for triplet polymerase activity
In short: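 After PCR construction and transcription, each subunit's mutant library from a heterodimeric triplet polymerase ribozyme was annealed with a biotinylated primer, the partner subunit and triplets. Incubation was frozen, at −7 °C, and extended constructs were gel-excised, bound to streptavidin beads and amplified by RT-PCR, in one selection round done in triplicate. Fitness is the logarithm of a genotype's enrichment divided by that of the wild type, from inverse-variance-weighted replicate averages of Illumina-sequenced inputs and outputs. The base of the logarithm is 2, and genotypes needed ≥10 input reads and ≥1 read per output.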

| Variant | polymerase ribozyme fitness (log ratio) |
| --- | --- |
| GGAUCUUCUCGAUCUAACAAAUAAGACAAAUCUGCCACAAAGCUUGAGAGCAUCUUCGGAUGCAGAGGCGGCAGCCUUCGGUGGCGCGUUAGCGCCAACGUUCUUAACUAUGACACGCAAAACGCGUGCUCCGUUGAAUGGAGUUUAUCAUG | 0.731 |
| GGAUCUUCUCGAUCUAACAAAUAAGACAAAUCUGCCACAAAGCUUGAGUGCAUCAUCGGAUGCAGAGGCGGCAGCCUUCGGUGUCGCGAUAGCGCCAACUUUCUCAAUUAUGACACGCAAAACGCGUGCUCCGUUGAAUGGAGUUUAUCAUG | ≤ -4.2 |
| GGAUCUUCUCGAUCUAACAAAUAGGACAAAUCUGCCACAAAGUUUGAGAGCAUCUUGGAAUGCAGAGGCGGCAGCCUUCGGUGGCGCGGUACCGCCAACGUUCUCAACUAUGACACGCAAAACGCGUGCUCCGUAGAAUGGAGUUUAUCAUG | ≤ -4.2 |
| GGAUCUUCUCGAUCUAACAAAUAAGACAAAUCUGCCAAAAAGCUUGAGAUCAUCUACGGAUGCAGAGGCGGCAGGCUUCGGUGGCGCGAUAGUGCCAACGUUCUCAACUAUGACACGCAAAACGCGUGCUCCGAUGAAUGGAGUUUAUCAUG | ≤ -4.2 |
| GGAUCUUCUCGAUCUAACAAAUAAGACAAAUCUGACACAAAGCUUGAGAGCAUCUUCGGAUGCAAAGGAGGCAGCCUUCGGUGGCGCGAUAGCGCCAACGUUCUCAACUAUGACAUCCAAAACGCGUGCUCCGUUGAAUGGAGUUUAUCAUG | -3.86 |
| GGAUCUUCUCGAUCUAACAAAGAAGACAAAUCUGCCACAAAGCUUGAGAGCAUCUUCGGAUGCAGAGGCGGCAGCCUUCGGUGGCGCGAUAGCGCCAACGUUCUCAACGAUGACACGCAAAACGCGUGCUCCGUUGAAUGGAGUUUAUCAUG | -0.357 |
| GGAUCUUCUCGAUCUAACAAAUAAGACAAAUCUGCCACAAAGCUUGAGAGCAUCUUCGGAUGCAGAGGCGGCAGCCUUCGGUGGCGCGAUGGCGCCAACGUUCUCAACUAUGACACGCAAAACGCGUGCUCCGUUGAAUGGAGUUUAUCAUG | -3.05 |
| GGAUCUUCUCGAUCUAACAAAGAAGACAAAUCUGCCACAAAGCUUGAGAGCAUCUACGGAUGCAGAGGCGGCAGCCUUCGGUGGUGCGAUAGCGCCAACGUUCUCAACUAUGACACGCAAAACGCGUGCUCCGUUGAAUGGAGUUUAUCAUG | -0.116 |
| GGAUCUUCUCGAUCUAACAAAUAAGACUAAUCUGCCAGAAAGCUUGAGAGUAUCUUCGGAUGCAGAGGCGGCAGCCUUCGGUCGCGCGAUAGCGCCAACGUUCUCAACUAUGACACGCAAAACGCGUGCUCCGUUGAAUGGAGUUUAUCAUG | ≤ -4.2 |
| GGAUCUUCUCGAUCUAACAAAUAAGACAAAUCUGACACAACGCUUGAGAGCAGCUUCGGAUGCAGAGGCGGCAGCCUUCGGUGGCGUGAUAGCGCCCACGUUCUCAAUUAUGACACGCAAAACGCGUGCUCCGUUGAAUGGAGUUUAUCAAG | ≤ -4.2 |
| GGAUCUUCUCGAUCUAACAAAUUAGACAAAUCUGCCACAAAGCUUGAGAGCAUCUUCGGAUGCAGAGGCUGCAGCCUUCGGUGGUGCGCUAGCGCCAACGUUCUCAACUAUGACACGCAGAACGCGUGCUCCGUUGAAUGGAGAUUAUCAUG | ≤ -4.2 |
| GGAUCUUCUCGAUCUAACAAAUAAGACAAAUCUGCCACAAAGCUUGAGAGCCUCUUCGGAUGCAGAGGCGGCAGCCUUCGGUGGCGCGAUAGCGCCAAUGUUCUCAACUAUGACACGCAAAACGCGUGCUCCGUUGAAUGGAGUUUAUCAUG | -1.89 |
| GGAUCUUCUCGAUCUAACAAAUAAGACAAAUCUGCCACAAAGCUUGAGGGCAUCUUCGGGUGCAGAGGCGGCAGCCUUCGGUUUCGCGAUAGCGCCAACGUUCUCAACUAUGACACGCAAAACGCGUGCUCCGUUGAAUGGAGUUUAUCAUG | -3.24 |
| GGAUCUUCUCGAUCUAACAAAUAAGGCAAAUCUGCAACAAAUCUUGAGAGCAUCUUCGGAUGCAGAGGCGGCAGCCUUCGGUGGCGCGAUAGCGCGAACGUUCUCAACUAUGACACGCAAAACGCGUUCUCGGUUGAAUGGAGGUUAUCAUG | ≤ -4.2 |
| GGAUCUUCUCGAUCUAACAAAUAAGACAAAUCUGCCAUAAAGCUUGAGAGCAUCUUCGGAUGCAGAGGCGGCUGCCUUCGGUGGCGCGAUAGCGCUAACGUUCUCAACUAUGACACGCAAAACGCGUGCUCCGUUGAAUGGAGUUUAUCAUG | 0.145 |
| GGAUCUUCUCGAUCUAACAAAUAAGACAAAUCUGCCACCAAGCUUGAGAGCAUCUUCGCAUGCAGAGGCGGCAGCCUUCGGUGGCGCGAUAGCGCCAACGUUCUCAACUAUGACACGCAAAACGCGUGCUCCGUUGAAUGGAAUUUAUCAUG | -4.09 |
| GGAUCUUCUCGAUCUAACAAAUAAGACAAAUCUGCCCCAAAGCUUGAGAGCAUCUUCGGAUGCAGAGGCGGCAGCCUUCGGUGGCGCGAUAGCGCUAACGUUCUCAACUAUGACACGCAAAACGCGUGCUCCGUUGAAUGGCGUUUAUCAUG | -1.63 |
| GGAUCUUCUCGAUCUAACAAAUAAGACAAAUCUGCCAUAAAGCUUGAGAGCAACUUCGGAUGCAGAGGCGGCACCCUUCGGUGGCGCGACAGCGCCAACGUUCUCAACUAUGACACGCAUAACGCGUGCUCCGUUGAAUGGAGUUUAUCAUG | ≤ -4.2 |
| GGAUCUUCUCGAUCUAACAAAUAAGACAACUAUGCCACAAAGCUUGAGAGCAUCUUCGGCUGCAGAGGCGGCAGCCUUCGGUGGGACGUUAGCGCCAACGUUCUCAACUGUGACACGCAAAACGCGUGCUCCGUGGAAUGGAGGUUAUCAUG | ≤ -4.2 |
